Experimental data: publication PMC6436656

B1: final 27 aa of Gα12, G peptide of the hGPR35-Gα12 SPASM sensor, Q03113 G.H5.22 Asp to Gln (peptide)
chain: DTENVRFVFHAVKDTILQENLKQIMLQ
B2: final 27 aa of Gα12, G peptide of the hGPR35-Gα12 SPASM sensor, Q03113 G.H5.23 Ile to Leu (peptide)
chain: DTENVRFVFHAVKDTILQENLKDLMLQ

Target: human GPR35 (GPR35a splice variant), receptor part of the hGPR35 SPASM sensors, Q9HC97
Experiment: BRET (hGPR35 SPASM sensor)
Settings: chain shown with the change, highest concentration, read off a plot
[1] = bufrolin, 1e-6 M, parent: est. 1.1
[2] = lodoxamide, 1e-6 M, parent: est. 1.1
[3] = pamoic acid, about 10^-5.5 M, parent: est. 1.0
[4] = zaprinast, 1e-4 M, parent: est. 1.1

human GPR35 (GPR35a splice variant), receptor part of the hGPR35 SPASM sensors, Q9HC97, sequence (Q9HC97 whole entry, change not shown, canonical isoform): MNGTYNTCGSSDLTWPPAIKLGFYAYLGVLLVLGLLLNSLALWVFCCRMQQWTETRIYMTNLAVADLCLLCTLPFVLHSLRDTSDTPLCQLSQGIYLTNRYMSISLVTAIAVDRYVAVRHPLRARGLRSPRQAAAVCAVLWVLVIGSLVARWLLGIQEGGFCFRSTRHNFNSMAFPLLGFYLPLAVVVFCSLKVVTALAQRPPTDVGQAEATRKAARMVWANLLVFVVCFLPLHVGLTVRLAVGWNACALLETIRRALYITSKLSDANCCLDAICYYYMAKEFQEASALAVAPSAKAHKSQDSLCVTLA

| Binder | response (BRET ratio (fold change)) [1] | response (BRET ratio (fold change)) [2] | response (BRET ratio (fold change)) [3] | response (BRET ratio (fold change)) [4] |
| --- | --- | --- | --- | --- |
| B1 | 1.1 | 1.2 | 1.1 | 1.2 |
| B2 | 1.4 | 1.4 | 1.1 | 1.4 |
